According to US20180031580:

Target: insulin-like growth factor type 1 (IGF-1)

B1: dipeptidyl-peptidase 4 (DPP-4) (protein)
chain: NKGTDDATADSRKTYTLTDYLKNTYRLKLYSLRWISDHEYLYKQENNILVFNAEYGNSSVFLENSTFDEFGHSINDYSISPDGQFILLEYNYVKQWRHSYTASYDIYDLNKRQLITEERIPNNTQWVTWSPVGHKLAYVWNNDIYVKIEPNLPSYRITWTGKEDIIYNGITDWVYEEEVFSAYSALWWSPNGTFLAYAQFNDTEVPLIEYSFYSDESLQYPKTVRVPYPKAGAVNPTVKFFVVNTDSLSSVTNATSIQITAPASMLIGDHYLCDVTWATQERISLQWLRRIQNYSVMDICDYDESSGRWNCLVARQHIEMSTTGWVGRFRPSEPHFTLDGNSFYKIISNEEGYRHICYFQIDKKDCTFITKGTWEVIGIEALTSDYLYYISNEYKGMPGGRNLYKIQLSDYTKVTCLSCELNPERCQYYSVSFSKEAKYYQLRCSGPGLPLYTLHSSVNDKGLRVLEDNSALDKMLQNVQMPSKKLDFIILNETKFWYQMILPPHFDKSKKYPLLLDVYAGPCSQKADTVFRLNWATYLASTENIIVASFDGRGSGYQGDKIMHAINRRLGTFEVEDQIEAARQFSKMGFVDNKRIAIWGWSYGGYVTSMVLGSGSGVFKCGIAVAPVSRWEYYDSVYTERYMGLPTPEDNLDHYRNSTVMSRAENFKQVEYLLIHGTADDNVHFQQSAQISKALVDVGVDFQAMWYTDEDHGIASSTAHQHIYTHMSHFIKQCFSLP
  phosphorylation level of ERK or Akt (western blot): when the eNOS-deficient mice treated with IGF-1 was treated with DPP-4, the phosphorylation level of ERK or Akt which is the protein involved in intracellular signaling was reduced
